Results taken from patent US7553617B1, “Peptide library and screening systems” (Affymax, Inc., priority 1990, dated 2009).
Where no end group is shown, it is not given here.

How the values were obtained:
[1] = molecular target: Monoclonal antibody 3E7; assay: solution RIA, 30 pM tracer, 18 hr incubation
[2] = molecular target: 3E7 antibody; assay: Solution radioimmunoassay, inhibition of [125I]b-endorphin binding to mAb 3E7; conditions: for IC50: geometric mean, 30 pM [125I]b-endorphin, 20% tracer bound, 18 hr. incubation, 0.25 μg/ml 3E7; for Affinity Relative to YGGFL (SEQ ID NO: 125): relative to YGGFL = 1
Experimental: The peptides were synthesized according to well known protocols, as described in, for example, Merrifield, Science 232:341-347 (1986), incorporated by reference herein. A solution radioimmunoassay was used to estimate the binding affinities of peptides for mAb 3E7. Solution radioimmunoassay using [^125I]b-endorphin (20,000 cpm) and purified 3E7 antibody (0.25 μg/ml) was conducted as described by Meo et al., supra, with the exception that the final volume was 150 μl. Antibody-bound and free [^125I]b-endorphin were separated by addition of activated charcoal followed by centrifugation, as described in Ghazarassian et al., Life Sciences 27:75-86 (1980). Antibody-bound [^125I]b-endorphin in the supernatant was measured in a gamma counter. […] J. Physiol. 235:E97-E102 (1978).

[3] = test system: Monoclonal antibody 3E7; conditions: Meo et al., Herz et al., Gramsch et al.; cited from earlier work
[4] = molecular target: Monoclonal antibody 3E7; assay: solution RIA, displacement of [125I]b-endorphin from mAb 3E7
[5] = molecular target: Monoclonal antibody 3E7; assay: binding experiments with mAb 3E7 and [3H]YGGFL, room temperature

Row | Molecule | IC50 [2] [nM] | Affinity Relative to YGGFL (SEQ ID NO: 125) [2] | Affinity Relative to YGGFL [4] | IC50 [4] [nM] | other results
1 | [125I-tyr28]b-endorphin (from UniProt P01189 237-267) (peptide) |  |  |  |  | tracer bound [1]: 20%
2 | YAGFAQ [YAGFAQ] | 8300 | 0.00086 |  |  | 
3 | YGGWAG [YGGWAG] | 7800 | 0.00091 |  |  | 
4 | YGGF [Tyr-Gly-Gly-Phe, reference compound] | 190 | 0.037 |  |  | 
5 | YGGFM: met-enkephalin, natural opioid peptide |  |  |  |  | binding to antibody 3E7 [3]: binds tightly
6 | YGGFPD [YGGFPD] | 2300 | 0.0031 |  |  | 
7 | YGNWTY [YGNWTY] | 7800 | 0.00091 |  |  | 
8 | YGPFWS [YGPFWS] | 1900 | 0.0037 |  |  | 
9 | YGG (peptide) |  |  | < 7.1e-06 |  | 
10 | GGF (peptide) |  |  | < 7.1e-06 |  | 
11 | GFL (peptide) |  |  | < 7.1e-06 |  | 
12 | YGGFL [Tyr-Gly-Gly-Phe-Leu, reference compound] | 7.1 | 1 |  |  | binding to antibody 3E7 [3]: binds tightly
13 | YGFWGM [YGFWGM] | 350 | 0.020 |  |  | 
14 | YGFWGM |  |  | 0.02 | 350 | 
15 | YGGWAG |  |  | 0.00091 | 7800 | 
16 | YGNWTY |  |  | 0.00091 | 7800 | 
17 | GGFL |  |  | < 7.1e-06 |  | 
18 | YGPFWS |  |  | 0.0037 | 1900 | 
19 | YGGF |  |  | 0.037 | 190 | 
20 | YGGFL |  |  | 1 | 7.1 | dissociation t1/2 [5]: 45 s
21 | YGGFPD |  |  | 0.0031 | 2300 | 
22 | YAGFAQ |  |  | 0.00086 | 8300 | 
